Measurements reported in patent US5747660A, “Nucleic acid encoding prostaglandin F2α receptor regulatory protein” (priority 1995, dated 1998).
“And” between values parts separate entries of the source, which are not always exact repeats. Equal values may be shown once. Read-outs that look alike come from different tables or passages of the source.

Columns and labels:
[1] = molecular target: prostaglandin F2α receptor (FP)
Protocol: [^3 H]PGF2α binding (DPM) was normalized to the average quantity of protein per culture dish (65 μg), and plotted against unlabeled PGF2α concentration.
For [^3 H]PGF2α binding experiments, the above electroporated cells were divided equally and cultured in six 35×10 mm culture dishes with 1.5 ml culture media each. […] Briefly, media was removed from the culture dishes, the dishes were washed 4 times in 1 L each of phosphate buffered saline (PBS, 10 mM phosphate), 150 mM NaCl, pH 7.0), and 0.35 ml of binding buffer (1×Hanks, 0.1% BSA, 2 mM MnCl2, 0.5 mM CaCl2, pH 6.0) containing either 2×10^-9 M [^3 H]PGF2α (total binding) or 2×10^-9 M [^3 H]PGF2α plus 2×10^-6 M unlabelled PGF2α (non-specific binding). The binding incubation was at 37° for 20 minutes. Following incubation, the binding buffer was removed, the dishes were washed 4 times in 1 L each of PBS, then 0.5 ml of 1.0M NaOH was added to each dish. Dishes were then incubated overnight at 37° C., the NaOH solution removed, neutralized with 0.5 ml of 1M HCL (made with 200 mM phosphate buffer pH 7.4), vortexed, and aliquots were analyzed for protein by the Bradford technique (1976) Anal. Biochem. 72:248-252, or analyzed for ^3 H content with a Beckman 6000 TA liquid scintillation counter (using Aquasol-2, New England Nuclear, Boston, Mass.; approximate counting efficiency 50-55%).
Saturation binding. A saturation binding experiment was performed to examine the effect of FPRP on FP. Scatchard analysis should discriminate between competitive and noncompetitive methods of FPRP action. [^3 H]PGF2α binding was assessed following transfection with either FP+pSG5 or FP+anti-sense FPRP (2 controls) and following transfection with FP+FPRP or FP+ dss FPRP (2 experimentals). Data are shown in FIG. 9A for unlabelled PGF2α inhibition of [^3 H]PGF2α binding and in FIG. 9B for the Scatchard transformation of this same data.

[2] = test system: prostaglandin F2α receptor (FP); experiment: Effect of intracellular messenger altering agents on [3H]PGF2α binding and on FPRP inhibition of it; assay type: cell-based
Protocol: In a third experiment, transfected cells were treated for 30 min with exposure to the following: phorbol 12-myristate 13-acetate 10^-8 M, prostaglandin E1, 10^-7 M, A23187 10^-6 M, okadaic acid 10^-6 M, or 8-Br-cAMP 10^-5 M (Table 4).
The effect of brefeldin A (3 μg/ml, 2 hr), chloroquine (100 μM, 6 hr) and tunicamysin (2.5 μg/ml, 20 hr) was determined.

[3] = molecular target: prostaglandin F2α receptor (FP); settings: literature value; read-out: [^3 H]PGF2α binding affinity reported by Ito et al. (1994); cited from earlier work
[4] = molecular target: prostaglandin F2α receptor (FP), cDNA construct whose species the place does not tell
[5] = molecular target: prostaglandin F2α receptor (FP), cDNA construct whose species the place does not tell; remark: listed apart in the source
[6] = test system: prostaglandin F2α receptor (FP); experiment: [3H]PGF2α binding in COS cells co-transfected with FP and an FPRP variant construct; settings: 3.5 μg FP cDNA construct and 5 μg test cDNA construct
[7] = test system: COS cells
[8] = test system: prostaglandin F2α receptor (FP); remark: listed apart in the source
Protocol: Models for FPRP interaction with FP were tested as follows. First, a conditioned media experiment was performed with either the pSGS vector, or the FPRP cDNA construct transfected into COS cells. Following plating and culture of these transfected cells for 24 hours the media in which the cells were grown was placed on cultures of cells transfected with FP. The cells transfected with FP and cultured with the conditioned medium for 4 hours were then analyzed for [^3 H]PGF2α binding. In a second experiment, FPRP or pSG5 were transfected as described above into one set of cells, FP alone into a second set of cells, and the cells co-cultured in the ratios shown in Table 3.
Briefly, COS cells were transfected with FP, pSG5, or FPRP, and plated. 24 h post transfection, media was removed from the pSG5 and FPRP transfected cultures, centrifuged 7 min at 1000×g, and added back to the FP culture media at the indicated ratios. Following 4 h of this media treatment, [^3 H]PGF2α binding was analyzed. As a control, FP and FPRP were cotransfected. For co-cultured cells, COS cells were transfected with FP, pSG5, or FPRP, mixed at a 1:1 ratio and cultured. As a control, cells were either transfected with FP or FP+FPRP.

[9] = test system: COS cells (endogenous specific [3H]PGF2α binding); experiment: [3H]PGF2α binding to COS cell cultures transfected with FPRP cDNA construct alone; assay type: cell-based; settings: COS cells transfected with FPRP cDNA construct only, 24 h
Protocol: COS cells were electroporated, cultured for 24 h and analyzed for specific [^3 H]PGF2α binding. Total transfected DNA is indicated on the abscissa. Data points represent mean±standard deviation, n=3.
Methods. COS-1 cells were used for transient expression experiments. Briefly, 70-80% confluent cultures (grown in Ham's F-12 media plus 8% fetal bovine serum, with media replacement 24 hours prior to transfection)were harvested with a trypsin/EDTA solution (final concentration: 0.02% ethylenediaminetetracetic acid, 0.05% sodium bicarbonate, and 0.5% Enzart 40x trypsin), washed twice with culture media, then resuspended in ice cold culture media at approximately 1.66×10^7 cells per ml. Aliquots of 0.15 ml (2.5×10^6 cells) were placed in electroporation cuvettes (BioRad, Hercules, Calif.) along with plasmid DNA, placed on ice for 10 minutes, electroporated with a Bio Rad electroporater (settings: 250 μF, […], .infin..OMEGA., 0.4 cm cuvette), 1 ml of ice cold culture media was added and the cells were left on ice for 10 minutes before plating.
The binding incubation was at 37° for 20 minutes.

[10] = test system: prostaglandin F2α receptor (FP); experiment: Cotransfection of a third construct along with FP and FPRP, [3H]PGF2α binding; assay type: cell-based; settings: FP + FPRP, no third construct; FP + pSG5 = 100
Excerpt: Therefore, a strategy based on cotransfection of a third construct (along with FP and FPRP) was pursued. These third party constructs included ones coding for the protease inhibitors alpha-l trypsin inhibitor and crmA, an inhibitor of cell death, bcl2, and few nonspecific control molecules including the vitamin D receptor, a secreted immunoglobulin molecule, and the empty parent vector pSG5 only. All groups and treatments were compared with control treatment of FP+pSG5 vs. FP+FPRP.

[11] = test system: prostaglandin F2α receptor (FP); experiment: [3H]PGF2α specific binding to COS cells cotransfected with FP cDNA and a test cDNA construct; assay type: cell-based, rat, mouse
[12] = test system: prostaglandin F2α receptor (FP); remark: listed apart in the source
Protocol: Cells transfected with either FP and pSG5 or FP and FPRP were plated in normal media containing serum and at either 21 h, 6 h or 0 h prior to [^3 H]PGF2α binding analysis had their media replaced with serum deficient medium, in order to obviate any effects due to hormones or factors present in the added serum.

[13] = control treatment (EtOH vehicle or Control), no agent

CCCCC[C@H](O)/C=C/[C@@H]1[C@@H](C/C=C\CCCC(=O)O)[C@@H](O)C[C@H]1O [PGF2α, Prostaglandin F2α]
Kd ([1]; read-out: [^3 H]PGF2α binding affinity, FP + pSG5, asFPRP, FPRP or dssFPRP: all 4 treatments similar): 0.008 µM
% Control [^3 H]PGF2α Binding, FP + FPRP ([2]; FP + FPRP transfected cells treated with the agent): 40 ± 3%
% Control [^3 H]PGF2α Binding, FP + pSG5 ([2]; FP + pSG5 transfected cells treated with the agent): 73 ± 9%
effect of agent on basal [^3 H]PGF2α binding ([2]; FP transfected cells pretreated with the agent): decreased subsequent basal FP binding
% Inhibition (FPRP inhibition of [^3 H]PGF2α binding) ([2]; in presence of the agent at the concentration/time given): 45%
Kd [3]: 0.025 µM

B1: rat prostaglandin F2α receptor regulatory protein (FPRP) (protein)
chain: RVVRVPAGTLVRVVGTELVIPCNVSDYDGPSEQNFDWSFSSSGSSFVELASTWEVGFPAQQYRERLQRGDILLRRTANDAVELHIKNVQPSDQGHYKCSTPSTDATVQGNYEDTMQVKVLADALVVGPSSRPPPGLSLREGEPFELRCIASTTSPLHTHLALRWELHRGPVHRSILALSHEGRFHPGPGYEQRYHSGDVRLDTVGSDAYRLSVARALSADQGSYRCVVSEWITEQGSWQEIQEKAVEVATVVIQPTALQLAVPRTVSVTEGKDLDLSCNITTDRVDDVRPEVTWYFKKTPDTSLLASHMLARLDRDSLVHSSPHVALSHVDTRSYHLLVRDVSKENSGYYLCLVALWAPGHNRSWHKVAEAMSAPSGVSVTWLEPEYQVYLNASKVPGFSDDPTELQCRVIDTKRVDAGVRLTVSWYYRMNRRNDDVVASELLAVMDGDWTLRYGERSKQRAQDGEFIFSKEHTDTFSFRIQRTTEEDRGSYYCVVSAWTRQRNSSWVKSKDVFSKPVNIFWASEDSVLVVKARQPKPFFAAGNTFEMTCKVSSKNIKSPRYSVLITAEKPVGDLSSPNETKYIISLDQDSVVKLENWTDASRVDGVVLEKVQEDEFRYRMYQTQVSDAGLYRCMVTAWSPIGGSLWREAATSLSNPIEIDFQTSGPIFNASVHSDTLSVTRGDLIKLFCIVTVDGAVLDPDDMAFDVSWFAVHSFGLDKAPILLSSLDRKGVVTTGQRDWKSTVSLERVSVLEFLLQVHGSEDQDFGNYYCSVTPWVRSPTGSWQREAEIHSRPIFITVKMDVLNAFKYPLLIGVGLSTVIRLLSCLIGYCSSHWCCKKEVRETRRERRRLMSMEMD
% control ^3 H!PGF2α binding, co-culture of FPRP transfected cells with FP transfected cells 1:1 [4]: 120 % control
% control ^3 H!PGF2α binding, conditioned media from FPRP transfected cells on FP transfected cells [4]: 103 % control
inhibition of ^3 H!PGF2α binding, saturation binding experiment [5]: 60%
inhibitory activity of FPRP variant on [^3 H]PGF2α binding [6]: may be slightly more active at lower concentrations but does not inhibit quite as well as native FPRP (construct 232) at high concentrations

B2: FPRP: rat prostaglandin F2α receptor regulatory protein (SEQ ID NO:1), expressed from FPRP cDNA in pSG5, construct 232 (SEQ ID NO:10) (protein)
chain: MGRPAPRPLLLALLSLAVCRGRVVRVPAGTLVRVVGTELVIPCNVSDYDGPSEQNFDWSFSSSGSSFVELASTWEVGFPAQQYRERLQRGDILLRRTANDAVELHIKNVQPSDQGHYKCSTPSTDATVQGNYEDTMQVKVLADALVVGPSSRPPPGLSLREGEPFELRCIASTTSPLHTHLALRWELHRGPVHRSILALSHEGRFHPGPGYEQRYHSGDVRLDTVGSDAYRLSVARALSADQGSYRCVVSEWITEQGSWQEIQEKAVEVATVVIQPTALQLAVPRTVSVTEGKDLDLSCNITTDRVDDVRPEVTWYFKKTPDTSLLASHMLARLDRDSLVHSSPHVALSHVDTRSYHLLVRDVSKENSGYYLCLVALWAPGHNRSWHKVAEAMSAPSGVSVTWLEPEYQVYLNASKVPGFSDDPTELQCRVIDTKRVDAGVRLTVSWYYRMNRRNDDVVASELLAVMDGDWTLRYGERSKQRAQDGEFIFSKEHTDTFSFRIQRTTEEDRGSYYCVVSAWTRQRNSSWVKSKDVFSKPVNIFWASEDSVLVVKARQPKPFFAAGNTFEMTCKVSSKNIKSPRYSVLITAEKPVGDLSSPNETKYIISLDQDSVVKLENWTDASRVDGVVLEKVQEDEFRYRMYQTQVSDAGLYRCMVTAWSPIGGSLWREAATSLSNPIEIDFQTSGPIFNASVHSDTLSVTRGDLIKLFCIVTVDGAVLDPDDMAFDVSWFAVHSFGLDKAPILLSSLDRKGVVTTGQRDWKSTVSLERVSVLEFLLQVHGSEDQDFGNYYCSVTPWVRSPTGSWQREAEIHSRPIFITVKMDVLNAFKYPLLIGVGLSTVIRLLSCLIGYCSSHWCCKKEVRETRRERRRLMSMEMD
inhibition of [^3 H]PGF2α binding to FP ([1]; saturation binding experiment, FP + FPRP cotransfection): approximately 60%
type of inhibition of [^3 H]PGF2α binding ([1]; saturation binding, Scatchard analysis): non-competitive inhibitor
decrease of viability of the transfected cells [7]: 20-60%
% Control [^3 H]PGF2α Binding ([8]; FP + FPRP cotransfection pos. control of the conditioned media experiment): 43 ± 5%
% Control [^3 H]PGF2α Binding ([8]; FP + FPRP cotransfection positive control of the co-culture experiment): 45 ± 3%
% Control [^3 H]PGF2α Binding ([8]; FP cells + 1:2 media from FPRP transfection, 4 h): 103 ± 10%
% Control [^3 H]PGF2α Binding ([8]; FP cells + 1:4 media from FPRP transfection, 4 h): 112 ± 10%
% Control [^3 H]PGF2α Binding ([8]; FP cells + 1:8 media from FPRP transfection, 4 h): 113 ± 11%
% Control [^3 H]PGF2α Binding ([8]; FP transfected cells co-cultured 1:1 with FPRP transfected cells): 120 ± 10%
ability to inhibit [^3 H]PGF2α binding to FP ([8]; conditioned media or co-culture type experiments): unable to inhibit
effect of FPRP expression on [^3 H]PGF2α binding [9]: marked, dose dependent decrease
% Control [^3 H]PGF2α Binding, FP + FPRP [2, 13]: 52 ± 3% and 37 ± 3%
% Inhibition (FPRP inhibition of [^3 H]PGF2α binding) [2, 13]: 48% and 63%
% Control [^3 H]PGF2α Binding [10]: 37 ± 5%
% CONTROL, [^3 H]PGF2α specific binding ([11]; COS cells cotransfected with FP + the named DNA, FP alone = 100): 30-50%
inhibitory activity of FPRP on [^3 H]PGF2α binding ([11]; COS cells nearly 100% confluent, media replaced ≈48 h prior to transfection): approximately 60%
% CONTROL [^3 H]PGF2α BINDING (FPRP inhibitory activity) ([11]; Standard: 80% confluent cells, 40 μg/dish post-electroporation, binding assay at 24 h): 30-50%
% CONTROL [^3 H]PGF2α BINDING (FPRP inhibitory activity) ([11]; binding buffer of Weipz et al. (1992), pH 6.0): 53 ± 8%
% CONTROL [^3 H]PGF2α BINDING (FPRP inhibitory activity) ([11]; binding buffer: standard buffer pH 6.0): 41 ± 5%
% CONTROL [^3 H]PGF2α BINDING (FPRP inhibitory activity) ([11]; binding buffer: standard buffer pH 7.0): 45 ± 3%
effect on [^3 H]PGF2α binding to FP ([11]; cotransfection with rFP or mFP): inhibited rFP and mFP equally
% CONTROL [^3 H]PGF2α BINDING (FPRP inhibitory activity) ([11]; density of cells post-electroporation: 40 μg/dish): 40 ± 5%
% CONTROL [^3 H]PGF2α BINDING (FPRP inhibitory activity) ([11]; density of cells post-electroporation: 20-30 μg/dish): 30 ± 5%
% CONTROL [^3 H]PGF2α BINDING (FPRP inhibitory activity) ([11]; density of cells post-electroporation: 60-80 μg/dish): 43 ± 4%
% CONTROL [^3 H]PGF2α BINDING (FPRP inhibitory activity) ([11]; density of cells prior to electroporation: 60-70% confluent): 35 ± 3%
% CONTROL [^3 H]PGF2α BINDING (FPRP inhibitory activity) ([11]; density of cells prior to electroporation: 80% confluent): 40 ± 5%
% CONTROL [^3 H]PGF2α BINDING (FPRP inhibitory activity) ([11]; density of cells prior to electroporation: 100% confluent): 38 ± 4%
% CONTROL [^3 H]PGF2α BINDING (FPRP inhibitory activity) ([11]; time between electroporation and binding: 24 hr): 36 ± 3%
% CONTROL [^3 H]PGF2α BINDING (FPRP inhibitory activity) ([11]; time between electroporation and binding: 48 hr): 33 ± 3%
% Control [^3 H]PGF2α Binding ([12]; Serum Removal: t = 1 h): 38 ± 7%
% Control [^3 H]PGF2α Binding ([12]; Serum Removal: t = -6 h): 48 ± 4%
% Control [^3 H]PGF2α Binding ([12]; Serum Removal: t = -21 h): 41 ± 3%
effect of growth in serum deficient media on percent of FPRP inhibition ([12]; serum deficient medium 21 h, 6 h or 0 h prior to binding): did not alter
